# Measured values reported in patent US20050042747A1, “Hivgp120-induced bob/gpr15 activation” (priority 2001, published 2005).
# B1: RANTES: natural ligand of CCR5 (protein, UniProt P13501 24-91, looked up)
# C-C motif chemokine 5: SPYSSDTTPCCFAYIARPLPRAHIKEYFYTSGKCSNPAVVFVTRKNRQVCANPEKKWVREYINSLEMS
# B2: MIP-1β: natural ligand of CCR5 (protein, UniProt P13236 24-92, looked up)
# C-C motif chemokine 4: APMGSDPPTACCFSYTARKLPRNFVVDYYETSSLCSQPAVVFQTKRSKQVCADPSESWVQEYVYDLELN
# modifications: ends and bridges not checked
# notes: natural ligand of CCR5
# B3: MIP-1α: natural ligand of CCR5 (protein, UniProt P10147 24-92, looked up)
# C-C motif chemokine 3: SLAADTPTACCFSYTSRQIPQNFIADYFETSSQCSKPGVIFLTKRSRQVCADPSEEWVQKYVSDLELSA
# Test system: HT-29 cells
# Assay: Calcium signaling in HT-29 cells (Fluo 4, confocal microscope)
# Assay type: cell-based, human
# Protocol: HT-29 cells (from ATCC) were grown in DMEM-F12 with 10% bovine calf serum, and were used 24-48 hours after plating. The Ghost (3) cells were obtained from the AIDS Research and Reference Reagent Program, and were grown DMEM with 10% bovine calf serum supplemented with 500 μg/ml G418, 100 μg/ml hygromycin, and 1 μg/ml puromycin.^27 These cells were used 24 to 96 hours after plating.
# Calcium studies were done on HT-29 cells and Ghost (3) cells loaded with Fluo 4. The cells were placed in Locke's buffer containing 5 μg/ml Fluo 4 AM ester (Molecular Probes) for 20 to 30 minutes, then in Locke's buffer for an additional 30 minutes before testing. Various concentrations of gp120IIIB (X4 trophic), gp120CM235 (R5 trophic), gp120mN (X4 trophic), gp12093TH975 (nonsyncytium-inducing primary isolate from an asymptomatic subject, trophism undetermined but likely R5), and gp120SF2 (X4R5 trophic), ranging from 10 nM to less than 1 pM, were added in Locke's buffer.^6 The gp120 proteins were obtained from the AIDS Research Reagent Referral Program. Some HT-29 cells were given one of the following pretreatments: 50 μg/ml anti-Bob37 overnight, 1 μg/ml pertussis toxin overnight, or 4.6 μg/ml U73122 for one hour. With the HT-29 cells only, similar tests were also performed with SDF-1, MIP-1α, MIP-1β, and RANTES rather than gp120. The cells were visualized every 4 seconds in a confocal microscope, using 488 nm argon laser excitation and detection filters appropriate for fluorescein-like dyes.
# For the first two or three days after plating, gp120 induces an immediate (within 4 seconds) calcium flux in undifferentiated HT-29 cells. The cells had previously been loaded with Fluo-4 AM ester (Molecular Probes, Eugene Oreg.) 5 micrograms/ml in the presence of Pleuronic F-127 0.02% in Locke's buffer for 30 minutes, then incubated at room temperature for an additional 30 minutes. Gp120IIIB was added while the cells were on an inverted confocal microscope using a 488 nm argon laser, with detection filters suitable for fluorescein-like dyes. […]
row,Molecule,"calcium signaling in HT-29 cells, in words"
1,B1,induced similar calcium signaling
2,B2,induced similar calcium signaling
3,B3,induced similar calcium signaling
